From PMC9987375

Assays:
[1] = biological target: cytoplasmic dynein-1 heavy chain, naturally occurring in Vero cells (African green monkey (endogenous in Vero)); assay: proximity ligation; Vero cells infected with ZIKV MR766 at MOI 1, fixed at 12 and 24 h.p.i.; mouse monoclonal anti-E and rabbit polyclonal anti-NTDyn
[2] = biological target: cytoplasmic dynein-1 heavy chain, naturally occurring in Vero cells (African green monkey (endogenous in Vero)); assay: proximity ligation; Vero cells infected with ZIKV MR766 at MOI 1, fixed at 18 h.p.i.; mouse monoclonal anti-E and rabbit polyclonal anti-NTDyn; PLA dots counted in 100 cells

Zika virus (ZIKV) envelope protein (E), MR766 strain (natural protein)
PLA dots per cell (12 and 24 h.p.i.) (PLA dots per cell) [1]: < 1 | PLA dots per cell (18 h.p.i.) (PLA dots per cell) [2]: > 6 | PLA dots per cell (mean, 18 h.p.i.) (PLA dots per cell) [2]: 2.9
